Measured values reported in US12624123B2, “Compositions and methods for reducing off-target toxicity of antibody drug conjugates” (The Research Foundation for The State University of New York, priority 2019, dated 2026).
“Also recorded” adds a separate entry of the source.

Legend:
8C2 mAb = experiment: Competitive ELISA of 8C2 with topotecan and SN38 (BSA-topotecan coated); type: binding, murine; conditions: 8C2 held constant at 10 nM; read-out: IC50 in competitive ELISA vs intact 8C2
Method: A competitive ELISA was employed to determine the affinity of intact 8C2 mAb for SN38 and topotecan. A BSA-topotecan conjugate was synthesized and immobilized as previously described (Shah et al., Int J Pharm. 2014; 465(1-2):228-238. doi:10.1016/j.ijpharm.2014.01.038) 8C2 concentration was held constant at 10 nM with increasing concentrations of topotecan or SN38. 8C2 drug samples were incubated for 2 hours at room temperature with agitation. Following incubation, wells were washed three times with 250 μL of PBS-T and three times with dH2O. Wells were then incubated with a 1:500 dilution anti-mouse AP conjugate secondary in PBS-T with 3% BSA for 1 h. After washing, 250 μL of 4 mg/ml PNPP in diethanolamine buffer pH 9.8 with absorbance being read at 405 nm. The change in absorbance over time data was fit to a four-parameter function in GraphPad Prism 7.

LS174T cells = experiment: Competitive cell cytotoxicity assay with LS174T cells; type: cell-based
Method: Log-phase MOLM-14, Ramos (RA 1), HT-29, LS174T, or NCI-N87 cells were seeded in 96-well microtiter plates at a density of 20,000 cells/well, 20,000 cells/well, 5,000 cells/well, 5,000 cells/well, and 10,000 cells/well, respectively, in 100 μL of culture medium. HT-29, LS174T, and NCI-N87 cells were allowed to adhere for 24 h before cell culture media was aspirated and replaced with 100 μL of fresh media containing a range of treatment for, 48 (LS174T), 96 (NCI-N87), or 120 (HT-29) h. MOLM-14 and Ramos cells were re-suspended with treatment solutions, where 100 μL of cell-treatment suspension was aliquoted into wells of a 96-well plate for 24 h. Treatment solutions consisted of calicheamicin, MMAE, topotecan, or SN38 with or without immunized animal plasma, purified anti-drug antibody, or antibody-drug conjugate (ADC) with or without plasma or anti-drug antibody. For MOLM-14 and Ramos cells, 25 μL of MTT solution (5 mg/mL in pH 7.4 1× PBS) was added directly to wells following treatment incubation. For adherent cells, treatment media was aspirated from wells and cells were washed three times with 100 μL of fresh media. Following the final wash, 100 μL of complete media and 25 μL of MTT solution were added to each well. Cells were incubated for 4 h in order to allow cells to reduce MTT to formazan dye. […] Formazan dye was measured at 570 nm and normalized by cell debris at 690 nm.

Trastuzumab deruxtecan = experiment: Indirect ELISA of purified sdAb on trastuzumab deruxtecan; type: binding
Text: FIG. 16. SDS-PAGE and Indirect ELISA.
FIG. 18. SDS-PAGE and Indirect ELISA.

Ramos cells = experiment: MTT cytotoxicity of calicheamicin on Ramos cells; type: cell-based; conditions: 24 h
Method: (§1) Log-phase MOLM-14, Ramos (RA 1), HT-29, LS174T, or NCI-N87 cells were seeded in 96-well microtiter plates at a density of 20,000 cells/well, 20,000 cells/well, 5,000 cells/well, 5,000 cells/well, and 10,000 cells/well, respectively, in 100 μL of culture medium. HT-29, LS174T, and NCI-N87 cells were allowed to adhere for 24 h before cell culture media was aspirated and replaced with 100 μL of fresh media containing a range of treatment for, 48 (LS174T), 96 (NCI-N87), or 120 (HT-29) h. MOLM-14 and Ramos cells were re-suspended with treatment solutions, where 100 μL of cell-treatment suspension was aliquoted into wells of a 96-well plate for 24 h. Treatment solutions consisted of calicheamicin, MMAE, topotecan, or SN38 with or without immunized animal plasma, purified anti-drug antibody, or antibody-drug conjugate (ADC) with or without plasma or anti-drug antibody. For MOLM-14 and Ramos cells, 25 μL of MTT solution (5 mg/mL in pH 7.4 1× PBS) was added directly to wells following treatment incubation. For adherent cells, treatment media was aspirated from wells and cells were washed three times with 100 μL of fresh media. Following the final wash, 100 μL of complete media and 25 μL of MTT solution were added to each well. Cells were incubated for 4 h in order to allow cells to reduce MTT to formazan dye. Once MTT was reduced, 100 μL of 10% SDS prepared in 0.01 M HCl was added to each well and incubated overnight to solubilize the formazan crystals. Formazan dye was measured at 570 nm and normalized by cell debris at 690 nm.
(§2) Fresh media containing a range of treatment were pre-incubated with or without 100 μM purified sdAb at room temperature for 30 minutes. Log-phase MOLM-14 cells were seeded in 96-well microtiter plates at a density of 20,000 cells/well, and were re-suspended with treatment solutions, where 100 μL of cell-treatment suspension was aliquoted into wells of a 96-well plate for 24 h. 25 μL of MTT solution (5 mg/mL in pH 7.4 1× PBS) was added directly to wells following treatment incubation. […] Formazan dye was measured at 570 nm and normalized by cell debris at 690 nm.

MOLM-14 cells = experiment: MTT cytotoxicity of calicheamicin on MOLM-14 cells; type: cell-based, human; conditions: 24 h, 100 μM peptide or sdAb
Method: as §1, §2

[1] = sdAb CG4 ELISA and Dynabeads binding assay; conditions: for actual fold reduction considering background: 10 μM calicheamicin
Method: Nunc Maxisorp 96-well plates were coated with 4 μg/ml Cetuximab or Cetuximab-calicheamicin, or 5 μg/ml Avidin. Plates were washed three times with PBST and three times with dH2O, and blocked with MPBS for 2 h at RT. For the Avidin coated plates, plates were washed three times with PBST and incubated with 1 μM Biotin-Calicheamcin. Plates were then washed three times with PBST and incubated with increasing concentration of purified sdAb CG4 (G4 from FIG. 25) at RT for 2 h, with or without pre-incubation with free Calicheamicin at 10 μM. Plates were then washed three times with PBST, where bound sdAb was detected using an anti-His tag HRP-conjugated Ab diluted 1:1000 in MPBST. Following incubated and five washed with PBST, 100 μL of 1-Step Turbo TMB-ELISA solution was added to each well and incubated for 30 minutes. The reaction was quenched by adding 100 μL of Stop solution to each well and absorbance was measured at 450 nm. Alternatively, wells can also be incubated with 1:1000 diluted anti-His tag AP-conjugated Ab, instead of HRP conjugated Ab. After washing, 4 mg/ml PNPP in diethanolamine buffer pH 9.8 with absorbance being read at 405 nm.
Calicheamicin conjugated dynabeads were washed with PBST and blocked with MPBS for 30 min. Beads were washed three times with PBST and incubated with sdAb for 30 minutes. Bound sdAb were detected with 1:1000 diluted anti-His tag HRP-conjugated Ab. After washed with PBST, beads were resuspended with 500 μL of 1-Step Turbo TMB-ELISA solution and incubated for 30 minutes. The reaction was quenched by adding Stop solution, and absorbance was measured at 450 nm.

[2] = Screening of llama sdAb phage clones against calicheamicin conjugates (FIG. 25); type: binding
Method: A master plate was generated by inoculating a single colony into wells of a 96-well round-bottom culture plate filled with […] 2×TY supplemented with 100 μg/mL ampicillin, 2% (wt/vol) glucose and 10% (vol/vol) glycerol, and grown overnight at 37° C. These wells were then used to inoculate wells of 96-deepwell plates containing 1 mL of 2×TY medium (100 μg/mL ampicillin+0.1% (wt/v) glucose per well). Plates were incubated them for 3 h at 37° C. and 250 rpm until OD600≈0.5. Nanobody expression was induced with 4 μL of 0.5 M IPTG per well (final concentration of 2 mM) and incubated for an additional 15-24 h at 37° C. and 250 rpm. Nunc Maxisorp 96-well plates were coated as described previously. Plates were washed three times with PBST and blocked with MPBS for 2 h at RT. […] Plates were then washed three times with PBST, where bound phage was detected using an anti-HA tag HRP-conjugated Ab diluted 1:1000 in PBST. Following incubated and five washed with PBST, 100 μL of 1-Step Turbo TMB-ELISA solution was added to each well and incubated for 30 minutes. The reaction was quenched by adding 100 μL of Stop solution to each well and absorbance was measured at 450 nm.
50 μl Dynabeads-calicheamicin were blocked with MPBS (PBS+2% non-fat dry milk) at RT for 30 minutes. Following pre-incubation with 1:50 preimmunized llama plasma, phage solutions were incubated with beads at RT for 30 minutes. […]

[3] = SPR dissociation screening on DM1-Biotin chip; type: binding; conditions: 20 min dissociation phase
Method: Preliminary screening of DM1/4 binders were performed using a neutravidin SPR chip with DM1-Biotin on the left channel. Phagemid purified sdAbs were flowed over the SPR chip for 2 minutes at a flow rate of 25 ul/min. After binding, sdAb was dissociated for 20 minutes. Observed sensorgrams were fit to an individual dissociation rate constant for each construct. Equilibrium and kinetic binding of 3A2 was assessed using a CM5 SPR chip with TDM1 immobilized on the left channel. […] Rate constants for 3A2-TDM1 association and dissociation were obtained through fitting of the observed sensorgrams for the 1.25, 2.5, 5, 7.5 and 10 nM injections to a 1:1 Langmuir binding model.

## CC[C@@]1(O)C(=O)OCc2c1cc1n(c2=O)Cc2cc3c(CN(C)C)c(O)ccc3nc2-1 [topotecan, reference compound]
8C2 mAb
  IC50: 9.3 nM
LS174T cells; absence of 8C2 or 8C2 scFv
  topotecan concentration at which significant cell death was observed: 2.5 nM

B1: TF7 (protein)
chain: QVQLQESGGGLAQPGGSLRVSCATSGFTFSSNYYISWVRQAPGRGLEWVSAINTGDGSTYYAHSVKGRFTISRDNAKNTLYLQMNSLKPEDTALYYCARSSLEGRIEKPYDYWGQGTQVTVSS
modifications: TF7 clone
Trastuzumab deruxtecan
  binding to trastuzumab deruxtecan: concentration-dependent binding

B2: CG4: Anti-Calicheamicin sdAb, SEQ ID NO:12 (protein)
VHH: QVQLQESGGGLVQAGGSLRLSCAASGRTISGYAMGWFRQAPGKERDLVAAISRSGTSTYYADSVKGRFTISRDNAKNTVYLQMNSLKPEDTAVYYCNAPGGIWGQGTQVTVSS
modifications: CG4
Ramos cells
  fold inhibition of calicheamicin cytotoxicity (IC50 shift): 6.34 fold
MOLM-14 cells
  fold change of calicheamicin IC50: 15.4 fold
[1]; avidin (biotin-calicheamicin) coated plates, 64 μM CG4
  fold decrease of CG4 binding signal by 10 μM calicheamicin: 2 fold
[1]; avidin coated plates
  actual fold reduction considering background: ~4.3 fold
[1]; cetuximab-calicheamicin ELISA and Dynabeads-calicheamicin
  binding to calicheamicin conjugates vs CG4 concentration: apparent calicheamicin binding with increasing concentration; also recorded: increased with increasing concentration
[1]; cetuximab-calicheamicin coated plates
  actual fold reduction considering background: around 3.3 fold
[2]; rescreen of five colonies
  effect of 1 μM free calicheamicin on clone binding: only clone inhibited; also recorded: loss of binding signal
[2]; single colonies
  binding to dynabeads-calicheamicin: high binding

B3: DT3H3 (protein)
VHH: EVQLVESGGGLVQPGGSLRLSCAASGRTFSHDHMGWFRQAPGKEREFVAAISWTSSTYYGDSVKGRFTISRSNAKNTVYLQMNSLKPEDTAIYYCSWGVGYWGQGTQVTVSS
[3]
  dissociation kinetics: longest dissociation rates; also recorded: longer dissociation rates

B4: 8C2 scFv (protein)
scFv: EVQLQQSGAELVKPGASVKLSCTASGFNIKDTYIHWVKQRPEQGLEWIGMIDLANDNTKYDPKFQGKATIITDTSSNKAYLQVSSLTSEDTAVYYCATWGAIITLGGWGQGTLVTVSAAKGGGGSGGGGSGGGGSGGGGSDIQMTQSPASLSASVGETVTITCRASGNIHNSLAWYQQIKGRSPQLLVYNAKTLADGVPSRFSGSGSGTQYSLKINSLHPEDFGSYYCQHFWSTPFTFGSGTKLEIKRENLYFQG
modifications: 8C2 scFv
LS174T cells; topotecan with 8C2 mAb or scFv
  effect on topotecan cytotoxicity: right-shifted; also recorded: increased the viability

B5: TA2 (protein)
VHH: QVQLQESGGGLVQPGGSLRVSCAASGFTFSSYYMSWVRQAPGKGLEWVSAINTGTGSTYYADSVKGRFTISSDNAKNTVYLQMSSLKPEDTALYYCARSSLEGRVEKPYDYWGQGTQVTVSS
modifications: TA2 clone
Trastuzumab deruxtecan
  binding to trastuzumab deruxtecan: concentration-dependent binding
